Data taken from publication PMC7126683 (Structure (London, England : 1993), 2005).

Target: the molecule itself
Assay: SEC

B1: IBV-N218-329, recombinant C-terminal domain (residues 218-329) of the IBV nucleocapsid protein (domain or fragment, UniProt P69596 218-329, looked up)
chain: KADEMAHRRYCKRTIPPNYRVDQVFGPRTKGKEGNFGDDKMNEEGIKDGRVTAMLNLVPSSHACLFGSRVTPKLQLDGLHLRFEFTTVVPCDDPQFDNYVKICDQCVDGVGT
With B1 the “stoichiometry N” value was 2.
